{
  "source": "paper PMC2647316",
  "about": "(Nucleic Acids Research, 2008)",
  "binders": {"B1": {"name": "(dT)15 (ssDNA)", "DNA": "TTTTTTTTTTTTTTT"}, "B2": {"name": "GkDnaC R145K146A double mutant (enzyme, Geobacillus kaustophilus HTA426, UniProt Q5KU75 1-454, looked up)", "chain": "MSELFSERIPPQSIEAEQAVLGAVFLDPTALTLASERLIPEDFYRAAHQKIFHAMLRVADKGEPVDLVTVTAELAALEQLEEVGGVSYLSELADSVPTAANVEYYARIVEEKSLLRRLIRTATSIAQDGYTREDEIDVLLDEAEAAIMEVSQRKHSGAFKNIKDVLVQTYDNIEMLHNRNGDITGIPTGFTELDRMTSGFQRSDLIIVAARPSVGKTAFALNIAQNVATKTNENVAIFSLEMSAQQLVMRMLCAEGNINAQNLRTGKLTPEDWGKLTMAMGSLSNAGIYIDDTPSIRVSDIRAKCRRLKQESGLGMVVIDYLQLIQGSGRNRENRQQEVSEISRSLKALARELEVPVIALSQLSRSVEQRQDKRPMMSDLRESGSIEQDADIVAFLYRDDYYNKDSENKNIIEIIIAKQRNGPVGTVQLAFIKEYNKFVNLERRFDEAQIPPGA"}, "B3": {"name": "GkDnaC K50A (enzyme, Geobacillus kaustophilus HTA426, UniProt Q5KU75 1-454, looked up)", "chain": "B2 chain with K50A, A145R, A146K"}, "B4": {"name": "GkDnaC R145A (enzyme, Geobacillus kaustophilus HTA426, UniProt Q5KU75 1-454, looked up)", "chain": "B2 chain with A146K"}, "B5": {"name": "GkDnaC R117A (enzyme, Geobacillus kaustophilus HTA426, UniProt Q5KU75 1-454, looked up)", "chain": "B2 chain with R117A, A145R, A146K"}, "B6": {"name": "Geobacillus kaustophilus HTA426 DnaC helicase, wild type (enzyme, UniProt Q5KU75 1-454, looked up)", "chain": "B2 chain with A145R, A146K"}, "B7": {"name": "GkDnaC R330A (enzyme, Geobacillus kaustophilus HTA426, UniProt Q5KU75 1-454, looked up)", "chain": "B2 chain with A145R, A146K, R330A"}, "B8": {"name": "GkDnaC R120A (enzyme, Geobacillus kaustophilus HTA426, UniProt Q5KU75 1-454, looked up)", "chain": "B2 chain with R120A, A145R, A146K"}, "B9": {"name": "GkDnaC R344A (enzyme, Geobacillus kaustophilus HTA426, UniProt Q5KU75 1-454, looked up)", "chain": "B2 chain with A145R, A146K, R344A"}, "B10": {"name": "GkDnaC R332A (enzyme, Geobacillus kaustophilus HTA426, UniProt Q5KU75 1-454, looked up)", "chain": "B2 chain with A145R, A146K, R332A"}},
  "key": {"[1]": {"target": "T1, GkDnaC replicative helicase WT (Geobacillus kaustophilus HTA426, UniProt Q5KU75 1-454)", "T1 sequence": "B2 chain with A145R, A146K", "experiment": "X-ray crystal structure"}, "SEC": {"target": "the molecule itself", "experiment": "SEC"}, "crystal structure": {"target": "the molecule itself", "experiment": "crystal structure"}},
  "note": "Substitutions are numbered along the chain they refer to. Numbers in names are those of the source.",
  "data": [
    {"binder": "B1", "values": [
      {"measurement": "binding result", "setting": "[1]", "result": "binds"}
    ]},
    {"binder": "B2", "values": [
      {"measurement": "stoichiometry N", "setting": "SEC", "result": 6}
    ]},
    {"binder": "B3", "values": [
      {"measurement": "stoichiometry N", "setting": "SEC", "result": 6}
    ]},
    {"binder": "B4", "values": [
      {"measurement": "stoichiometry N", "setting": "SEC", "result": 6}
    ]},
    {"binder": "B5", "values": [
      {"measurement": "stoichiometry N", "setting": "SEC", "result": 6}
    ]},
    {"binder": "B6", "values": [
      {"measurement": "stoichiometry N", "setting": "crystal structure", "result": 6}
    ]},
    {"binder": "B7", "values": [
      {"measurement": "stoichiometry N", "setting": "SEC", "result": 6}
    ]},
    {"binder": "B8", "values": [
      {"measurement": "stoichiometry N", "setting": "SEC", "result": 6}
    ]},
    {"binder": "B9", "values": [
      {"measurement": "stoichiometry N", "setting": "SEC", "result": 6}
    ]},
    {"binder": "B10", "values": [
      {"measurement": "stoichiometry N", "setting": "SEC", "result": 6}
    ]}
  ]
}
